# Measured values published in patent US20160272693A1 (ZEALAND PHARMA A S, published 2016).
# *1 amine or outer side, *2 acyl side, *3 side chain or, on linkers, in order; H or OH if unused. Bridges are numbered along the chain shown (N, C = ends). [ ]: non-standard residue; d: D form. The star is where a group is joined. C20 diacid = O=C(O)CCCCCCCCCCCCCCCCCCC(=O)*; γGlu = O=C(O)[C@H](CCC(=O)[*:2])N[*:1]; Hyp = O=C(O)[C@@H]1C[C@@H](O)CN1; NMeI = CC[C@H](C)[C@H](NC)C(=O)O; Sar = CNCC(=O)O
# T1: human amylin receptor 3 (hAMYR3), hCTR2 co-expressed with human receptor activity modifying protein 3 (hRAMP3) (human, UniProt P30988 25-474; O60896 24-148)
# T1 sequence (looked up) 1: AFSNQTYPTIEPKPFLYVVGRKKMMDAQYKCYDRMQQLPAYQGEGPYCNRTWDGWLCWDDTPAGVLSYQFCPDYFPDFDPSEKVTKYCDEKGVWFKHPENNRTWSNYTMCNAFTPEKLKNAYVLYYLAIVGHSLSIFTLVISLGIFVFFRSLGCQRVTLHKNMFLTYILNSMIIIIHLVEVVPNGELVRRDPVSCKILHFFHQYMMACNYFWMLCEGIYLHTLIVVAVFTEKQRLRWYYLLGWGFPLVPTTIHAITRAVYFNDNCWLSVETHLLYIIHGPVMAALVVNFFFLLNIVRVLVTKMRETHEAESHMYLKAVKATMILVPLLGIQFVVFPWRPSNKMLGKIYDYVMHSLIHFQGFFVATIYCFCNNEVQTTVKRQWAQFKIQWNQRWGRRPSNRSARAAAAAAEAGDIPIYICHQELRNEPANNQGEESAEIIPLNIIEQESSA
# T1 sequence (looked up) 2: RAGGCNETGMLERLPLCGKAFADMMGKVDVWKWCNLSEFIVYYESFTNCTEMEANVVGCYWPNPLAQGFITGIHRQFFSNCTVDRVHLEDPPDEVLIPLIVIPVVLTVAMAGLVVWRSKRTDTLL
# B1: [19CD]-isoGlu-R-C( )-NTAT-C( )-ATQRLADFLQRSSF-Gly(Me)-A-Ile(Me)-LSSTEVGSNTP-NH2 (Compd. 65) (peptide)
# peptide: {C20 diacid-γGlu}-RCNTATCATQRLADFLQRSSF[Sar]A[NMeI]LSSTEVGSNTP-NH2
# modifications: disulfide 2-7
# SMILES: CC[C@H](C)[C@@H](C(=O)N[C@@H](CC(C)C)C(=O)N[C@@H](CO)C(=O)N[C@@H](CO)C(=O)N[C@H](C(=O)N[C@@H](CCC(=O)O)C(=O)N[C@H](C(=O)NCC(=O)N[C@@H](CO)C(=O)N[C@@H](CC(N)=O)C(=O)N[C@H](C(=O)N1CCC[C@H]1C(N)=O)[C@@H](C)O)C(C)C)[C@@H](C)O)N(C)C(=O)[C@H](C)NC(=O)CN(C)C(=O)[C@H](Cc1ccccc1)NC(=O)[C@H](CO)NC(=O)[C@H](CO)NC(=O)[C@H](CCCNC(=N)N)NC(=O)[C@H](CCC(N)=O)NC(=O)[C@H](CC(C)C)NC(=O)[C@H](Cc1ccccc1)NC(=O)[C@H](CC(=O)O)NC(=O)[C@H](C)NC(=O)[C@H](CC(C)C)NC(=O)[C@H](CCCNC(=N)N)NC(=O)[C@H](CCC(N)=O)NC(=O)[C@@H](NC(=O)[C@H](C)NC(=O)[C@@H]1CSSC[C@H](NC(=O)[C@H](CCCNC(=N)N)NC(=O)CC[C@H](NC(=O)CCCCCCCCCCCCCCCCCCC(=O)O)C(=O)O)C(=O)N[C@@H](CC(N)=O)C(=O)N[C@@H]([C@@H](C)O)C(=O)N[C@@H](C)C(=O)N[C@@H]([C@@H](C)O)C(=O)N1)[C@@H](C)O
# B2: [19CD]-isoGlu-R-C( )-GTAT-C( )-ATERLAHFLQRSSF-Gly(Me)-A-Ile(Me)-LSSTEVGSNT-Hyp-NH2 (Compd. 7) (peptide)
# peptide: {C20 diacid}-[γGlu]RCGTATCATERLAHFLQRSSF[Sar]A[NMeI]LSSTEVGSNT[Hyp]-NH2
# modifications: disulfide 3-8
# SMILES: CC[C@H](C)[C@@H](C(=O)N[C@@H](CC(C)C)C(=O)N[C@@H](CO)C(=O)N[C@@H](CO)C(=O)N[C@H](C(=O)N[C@@H](CCC(=O)O)C(=O)N[C@H](C(=O)NCC(=O)N[C@@H](CO)C(=O)N[C@@H](CC(N)=O)C(=O)N[C@H](C(=O)N1C[C@H](O)C[C@H]1C(N)=O)[C@@H](C)O)C(C)C)[C@@H](C)O)N(C)C(=O)[C@H](C)NC(=O)CN(C)C(=O)[C@H](Cc1ccccc1)NC(=O)[C@H](CO)NC(=O)[C@H](CO)NC(=O)[C@H](CCCNC(=N)N)NC(=O)[C@H](CCC(N)=O)NC(=O)[C@H](CC(C)C)NC(=O)[C@H](Cc1ccccc1)NC(=O)[C@H](Cc1c[nH]cn1)NC(=O)[C@H](C)NC(=O)[C@H](CC(C)C)NC(=O)[C@H](CCCNC(=N)N)NC(=O)[C@H](CCC(=O)O)NC(=O)[C@@H](NC(=O)[C@H](C)NC(=O)[C@@H]1CSSC[C@H](NC(=O)[C@H](CCCNC(=N)N)NC(=O)CC[C@H](NC(=O)CCCCCCCCCCCCCCCCCCC(=O)O)C(=O)O)C(=O)NCC(=O)N[C@@H]([C@@H](C)O)C(=O)N[C@@H](C)C(=O)N[C@@H]([C@@H](C)O)C(=O)N1)[C@@H](C)O
# B3: [19CD]-isoGlu-R-C( )-NTAT-C( )-ATERLADFLQRSSF-Gly(Me)-A-Ile(Me)-LSSTEVGSNT-Hyp-NH2 (Compd. 68) (peptide)
# peptide: {C20 diacid-γGlu}-RCNTATCATERLADFLQRSSF[Sar]A[NMeI]LSSTEVGSNT[Hyp]-NH2
# modifications: disulfide 2-7
# SMILES: CC[C@H](C)[C@@H](C(=O)N[C@@H](CC(C)C)C(=O)N[C@@H](CO)C(=O)N[C@@H](CO)C(=O)N[C@H](C(=O)N[C@@H](CCC(=O)O)C(=O)N[C@H](C(=O)NCC(=O)N[C@@H](CO)C(=O)N[C@@H](CC(N)=O)C(=O)N[C@H](C(=O)N1C[C@H](O)C[C@H]1C(N)=O)[C@@H](C)O)C(C)C)[C@@H](C)O)N(C)C(=O)[C@H](C)NC(=O)CN(C)C(=O)[C@H](Cc1ccccc1)NC(=O)[C@H](CO)NC(=O)[C@H](CO)NC(=O)[C@H](CCCNC(=N)N)NC(=O)[C@H](CCC(N)=O)NC(=O)[C@H](CC(C)C)NC(=O)[C@H](Cc1ccccc1)NC(=O)[C@H](CC(=O)O)NC(=O)[C@H](C)NC(=O)[C@H](CC(C)C)NC(=O)[C@H](CCCNC(=N)N)NC(=O)[C@H](CCC(=O)O)NC(=O)[C@@H](NC(=O)[C@H](C)NC(=O)[C@@H]1CSSC[C@H](NC(=O)[C@H](CCCNC(=N)N)NC(=O)CC[C@H](NC(=O)CCCCCCCCCCCCCCCCCCC(=O)O)C(=O)O)C(=O)N[C@@H](CC(N)=O)C(=O)N[C@@H]([C@@H](C)O)C(=O)N[C@@H](C)C(=O)N[C@@H]([C@@H](C)O)C(=O)N1)[C@@H](C)O
# B4: [19CD]-isoGlu-R-C( )-PTAT-C( )-ATERLADFLQRSSF-Gly(Me)-A-Ile(Me)-LSSTEVGSNTP-NH2 (Compd. 67) (peptide)
# peptide: {C20 diacid}-[γGlu]RCPTATCATERLADFLQRSSF[Sar]A[NMeI]LSSTEVGSNTP-NH2
# modifications: disulfide 3-8
# SMILES: CC[C@H](C)[C@@H](C(=O)N[C@@H](CC(C)C)C(=O)N[C@@H](CO)C(=O)N[C@@H](CO)C(=O)N[C@H](C(=O)N[C@@H](CCC(=O)O)C(=O)N[C@H](C(=O)NCC(=O)N[C@@H](CO)C(=O)N[C@@H](CC(N)=O)C(=O)N[C@H](C(=O)N1CCC[C@H]1C(N)=O)[C@@H](C)O)C(C)C)[C@@H](C)O)N(C)C(=O)[C@H](C)NC(=O)CN(C)C(=O)[C@H](Cc1ccccc1)NC(=O)[C@H](CO)NC(=O)[C@H](CO)NC(=O)[C@H](CCCNC(=N)N)NC(=O)[C@H](CCC(N)=O)NC(=O)[C@H](CC(C)C)NC(=O)[C@H](Cc1ccccc1)NC(=O)[C@H](CC(=O)O)NC(=O)[C@H](C)NC(=O)[C@H](CC(C)C)NC(=O)[C@H](CCCNC(=N)N)NC(=O)[C@H](CCC(=O)O)NC(=O)[C@@H](NC(=O)[C@H](C)NC(=O)[C@@H]1CSSC[C@H](NC(=O)[C@H](CCCNC(=N)N)NC(=O)CC[C@H](NC(=O)CCCCCCCCCCCCCCCCCCC(=O)O)C(=O)O)C(=O)N2CCC[C@H]2C(=O)N[C@@H]([C@@H](C)O)C(=O)N[C@@H](C)C(=O)N[C@@H]([C@@H](C)O)C(=O)N1)[C@@H](C)O
# B5: [19CD]-isoGlu-R-C( )-NTAT-C( )-ATQRLAHFLQRSSF-Gly(Me)-A-Ile(Me)-LSSTEVGSST-Hyp-NH2 (Compd. 69) (peptide)
# peptide: {C20 diacid}-[γGlu]RCNTATCATQRLAHFLQRSSF[Sar]A[NMeI]LSSTEVGSST[Hyp]-NH2
# modifications: disulfide 3-8
# SMILES: CC[C@H](C)[C@@H](C(=O)N[C@@H](CC(C)C)C(=O)N[C@@H](CO)C(=O)N[C@@H](CO)C(=O)N[C@H](C(=O)N[C@@H](CCC(=O)O)C(=O)N[C@H](C(=O)NCC(=O)N[C@@H](CO)C(=O)N[C@@H](CO)C(=O)N[C@H](C(=O)N1C[C@H](O)C[C@H]1C(N)=O)[C@@H](C)O)C(C)C)[C@@H](C)O)N(C)C(=O)[C@H](C)NC(=O)CN(C)C(=O)[C@H](Cc1ccccc1)NC(=O)[C@H](CO)NC(=O)[C@H](CO)NC(=O)[C@H](CCCNC(=N)N)NC(=O)[C@H](CCC(N)=O)NC(=O)[C@H](CC(C)C)NC(=O)[C@H](Cc1ccccc1)NC(=O)[C@H](Cc1c[nH]cn1)NC(=O)[C@H](C)NC(=O)[C@H](CC(C)C)NC(=O)[C@H](CCCNC(=N)N)NC(=O)[C@H](CCC(N)=O)NC(=O)[C@@H](NC(=O)[C@H](C)NC(=O)[C@@H]1CSSC[C@H](NC(=O)[C@H](CCCNC(=N)N)NC(=O)CC[C@H](NC(=O)CCCCCCCCCCCCCCCCCCC(=O)O)C(=O)O)C(=O)N[C@@H](CC(N)=O)C(=O)N[C@@H]([C@@H](C)O)C(=O)N[C@@H](C)C(=O)N[C@@H]([C@@H](C)O)C(=O)N1)[C@@H](C)O
# B6: [19CD]-isoGlu-R-C( )-PTAT-C( )-ATERLAHFLQRSSF-Gly(Me)-A-Ile(Me)-LSSTEVGSST-Hyp-NH2 (Compd. 70) (peptide)
# peptide: {C20 diacid}-[γGlu]RCPTATCATERLAHFLQRSSF[Sar]A[NMeI]LSSTEVGSST[Hyp]-NH2
# modifications: disulfide 3-8
# SMILES: CC[C@H](C)[C@@H](C(=O)N[C@@H](CC(C)C)C(=O)N[C@@H](CO)C(=O)N[C@@H](CO)C(=O)N[C@H](C(=O)N[C@@H](CCC(=O)O)C(=O)N[C@H](C(=O)NCC(=O)N[C@@H](CO)C(=O)N[C@@H](CO)C(=O)N[C@H](C(=O)N1C[C@H](O)C[C@H]1C(N)=O)[C@@H](C)O)C(C)C)[C@@H](C)O)N(C)C(=O)[C@H](C)NC(=O)CN(C)C(=O)[C@H](Cc1ccccc1)NC(=O)[C@H](CO)NC(=O)[C@H](CO)NC(=O)[C@H](CCCNC(=N)N)NC(=O)[C@H](CCC(N)=O)NC(=O)[C@H](CC(C)C)NC(=O)[C@H](Cc1ccccc1)NC(=O)[C@H](Cc1c[nH]cn1)NC(=O)[C@H](C)NC(=O)[C@H](CC(C)C)NC(=O)[C@H](CCCNC(=N)N)NC(=O)[C@H](CCC(=O)O)NC(=O)[C@@H](NC(=O)[C@H](C)NC(=O)[C@@H]1CSSC[C@H](NC(=O)[C@H](CCCNC(=N)N)NC(=O)CC[C@H](NC(=O)CCCCCCCCCCCCCCCCCCC(=O)O)C(=O)O)C(=O)N2CCC[C@H]2C(=O)N[C@@H]([C@@H](C)O)C(=O)N[C@@H](C)C(=O)N[C@@H]([C@@H](C)O)C(=O)N1)[C@@H](C)O
# B7: [19CD]-isoGlu-R-C( )-NTAT-C( )-ATERLADFLQRSSF-Gly(Me)-A-Ile(Me)-LSSTEVGSNTP-NH2 (Compd. 66) (peptide)
# peptide: {C20 diacid-γGlu}-RCNTATCATERLADFLQRSSF[Sar]A[NMeI]LSSTEVGSNTP-NH2
# modifications: disulfide 2-7
# SMILES: CC[C@H](C)[C@@H](C(=O)N[C@@H](CC(C)C)C(=O)N[C@@H](CO)C(=O)N[C@@H](CO)C(=O)N[C@H](C(=O)N[C@@H](CCC(=O)O)C(=O)N[C@H](C(=O)NCC(=O)N[C@@H](CO)C(=O)N[C@@H](CC(N)=O)C(=O)N[C@H](C(=O)N1CCC[C@H]1C(N)=O)[C@@H](C)O)C(C)C)[C@@H](C)O)N(C)C(=O)[C@H](C)NC(=O)CN(C)C(=O)[C@H](Cc1ccccc1)NC(=O)[C@H](CO)NC(=O)[C@H](CO)NC(=O)[C@H](CCCNC(=N)N)NC(=O)[C@H](CCC(N)=O)NC(=O)[C@H](CC(C)C)NC(=O)[C@H](Cc1ccccc1)NC(=O)[C@H](CC(=O)O)NC(=O)[C@H](C)NC(=O)[C@H](CC(C)C)NC(=O)[C@H](CCCNC(=N)N)NC(=O)[C@H](CCC(=O)O)NC(=O)[C@@H](NC(=O)[C@H](C)NC(=O)[C@@H]1CSSC[C@H](NC(=O)[C@H](CCCNC(=N)N)NC(=O)CC[C@H](NC(=O)CCCCCCCCCCCCCCCCCCC(=O)O)C(=O)O)C(=O)N[C@@H](CC(N)=O)C(=O)N[C@@H]([C@@H](C)O)C(=O)N[C@@H](C)C(=O)N[C@@H]([C@@H](C)O)C(=O)N1)[C@@H](C)O
# Biological target: T1, human amylin receptor 3 (hAMYR3), hCTR2 …
# Experiment: cell-based or functional assay
row,hAMYR3 EC50 (nM); cAMP induction [nM],Binder
1,0.26,B1
2,0.34,B2
3,0.29,B3
4,0.65,B4
5,0.17,B5
6,0.36,B6
7,0.3,B7
